# Source: paper PMC3097272 (The FEBS journal, 2011)
# What was measured:
# [1] = target: non-muscle human F-actin (human) (UniProt P60709); assay: co-sedimentation
# [2] = target: rabbit skeletal muscle myosin II (rabbit, UniProt Q28641 1-1938; P02602 1-192; P02608 1-170); assay: co-sedimentation
# rabbit skeletal muscle myosin II, sequence (Q28641 whole entry, chain 1 of 3): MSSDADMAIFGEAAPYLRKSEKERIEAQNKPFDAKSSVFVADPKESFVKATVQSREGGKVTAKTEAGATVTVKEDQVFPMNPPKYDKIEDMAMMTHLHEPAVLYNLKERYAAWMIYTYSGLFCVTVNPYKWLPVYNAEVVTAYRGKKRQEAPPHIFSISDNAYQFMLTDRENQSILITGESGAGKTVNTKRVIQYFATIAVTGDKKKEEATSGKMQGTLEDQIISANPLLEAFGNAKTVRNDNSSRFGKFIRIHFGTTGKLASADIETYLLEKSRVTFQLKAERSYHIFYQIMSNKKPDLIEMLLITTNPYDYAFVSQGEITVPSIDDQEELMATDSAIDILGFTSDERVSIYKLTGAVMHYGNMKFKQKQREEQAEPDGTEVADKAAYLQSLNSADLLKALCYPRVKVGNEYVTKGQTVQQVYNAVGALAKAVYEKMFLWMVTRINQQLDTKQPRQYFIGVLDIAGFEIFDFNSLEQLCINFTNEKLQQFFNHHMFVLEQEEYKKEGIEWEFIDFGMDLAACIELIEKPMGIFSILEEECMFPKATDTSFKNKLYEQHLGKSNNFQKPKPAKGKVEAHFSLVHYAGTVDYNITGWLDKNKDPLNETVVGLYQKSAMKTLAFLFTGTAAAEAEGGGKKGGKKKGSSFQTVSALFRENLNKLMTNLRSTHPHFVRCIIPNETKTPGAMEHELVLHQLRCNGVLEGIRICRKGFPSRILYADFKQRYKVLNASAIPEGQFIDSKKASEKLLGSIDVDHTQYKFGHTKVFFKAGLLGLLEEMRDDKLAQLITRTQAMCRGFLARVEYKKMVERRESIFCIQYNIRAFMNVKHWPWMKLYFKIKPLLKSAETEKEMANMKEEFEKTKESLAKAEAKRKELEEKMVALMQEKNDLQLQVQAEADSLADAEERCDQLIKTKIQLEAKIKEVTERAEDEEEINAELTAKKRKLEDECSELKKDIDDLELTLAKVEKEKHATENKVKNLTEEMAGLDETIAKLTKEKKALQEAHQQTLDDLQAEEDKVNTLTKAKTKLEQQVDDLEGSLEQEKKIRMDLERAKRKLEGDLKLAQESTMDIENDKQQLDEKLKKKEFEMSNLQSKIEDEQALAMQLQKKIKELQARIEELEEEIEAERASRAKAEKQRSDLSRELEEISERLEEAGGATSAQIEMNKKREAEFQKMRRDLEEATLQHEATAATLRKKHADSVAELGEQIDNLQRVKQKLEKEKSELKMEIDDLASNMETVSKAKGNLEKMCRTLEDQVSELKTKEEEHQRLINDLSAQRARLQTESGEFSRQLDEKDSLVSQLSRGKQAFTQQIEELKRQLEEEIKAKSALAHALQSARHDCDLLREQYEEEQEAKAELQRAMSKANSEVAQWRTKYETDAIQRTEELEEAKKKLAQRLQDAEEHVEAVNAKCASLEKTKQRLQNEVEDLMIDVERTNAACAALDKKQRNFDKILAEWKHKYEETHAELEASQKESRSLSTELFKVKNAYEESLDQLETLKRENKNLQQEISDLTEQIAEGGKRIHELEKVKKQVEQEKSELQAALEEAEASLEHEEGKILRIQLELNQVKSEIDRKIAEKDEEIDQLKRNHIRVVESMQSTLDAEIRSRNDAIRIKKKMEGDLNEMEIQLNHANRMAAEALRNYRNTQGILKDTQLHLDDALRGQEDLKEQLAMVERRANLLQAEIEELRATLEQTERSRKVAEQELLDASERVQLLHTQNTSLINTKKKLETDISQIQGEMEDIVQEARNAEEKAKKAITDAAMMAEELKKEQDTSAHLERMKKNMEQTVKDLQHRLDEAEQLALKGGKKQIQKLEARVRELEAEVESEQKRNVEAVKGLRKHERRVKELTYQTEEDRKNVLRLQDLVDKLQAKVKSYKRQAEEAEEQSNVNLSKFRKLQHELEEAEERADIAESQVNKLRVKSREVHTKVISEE
# rabbit skeletal muscle myosin II, sequence (P02602 2-192, chain 2 of 3): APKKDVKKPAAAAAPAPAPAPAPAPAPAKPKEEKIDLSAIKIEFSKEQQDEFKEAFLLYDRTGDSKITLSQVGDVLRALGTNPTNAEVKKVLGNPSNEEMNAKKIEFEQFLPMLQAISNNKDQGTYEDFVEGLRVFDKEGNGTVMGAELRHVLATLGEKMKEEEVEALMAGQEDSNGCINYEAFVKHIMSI
# rabbit skeletal muscle myosin II, sequence (P02608 2-170, chain 3 of 3): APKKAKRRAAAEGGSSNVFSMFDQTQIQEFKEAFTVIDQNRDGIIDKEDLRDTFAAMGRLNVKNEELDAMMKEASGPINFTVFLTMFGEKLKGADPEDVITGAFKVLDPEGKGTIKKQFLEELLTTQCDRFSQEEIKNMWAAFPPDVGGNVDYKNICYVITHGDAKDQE
stoichiometry N (molar ratio (to 1)) [1],stoichiometry N [2],Molecule
5,,recombinant HGAL protein (Trx-HGAL fusion protein) (from UniProt Q8N6F7 1-178) (natural protein)
,2.5 molar ratio (to 1),"recombinant HGAL protein (Trx-HGAL fusion protein) (natural protein, human, UniProt Q8N6F7 1-178, looked up) MGNSLLRENRRQQNTQEMPWNVRMQSPKQRTSRCWDHHIAEGCFCLPWKKILIFEKRQDSQNENERMSSTPIQDNVDQTYSEELCYTLINHRVLCTRPSGNSAEEYYENVPCKAERPRESLGGTETEYSLLHMPSTDPRHARSPEDEYELLMPHRISSHFLQQPRPLMAPSETQFSHL"
